For one substance, stoichiometry N results are on record in article PMC5783996.

Broadly, the stoichiometry N is a count of units in the complex or per binding partner.

The target of the assay is Botryococcus braunii light-harvesting complexes (BB LHCII), apoproteins of the trimeric fraction B3 (Botryococcus braunii (endogenous in strain CCALA778 thylakoids)). The assay is described as follows: sucrose density gradient ultracentrifugation; thylakoids solubilised with 1% α-DM (also OG) at room temperature, complexes separated on a sucrose density gradient; bands assigned by position (MW).

In turn, “Botryococcus braunii light-harvesting complexes (BB LHCII), apoproteins of the trimeric fraction B3” displayed a stoichiometry N of 3.
